Measurements reported in publication PMC7954794, “Protein context shapes the specificity of SH3 domain-mediated interactions in vivo” (Nature Communications, 2021).

B1: Boi1 (protein, UniProt P38041 1-980, looked up)
BEM1-interacting protein 1: MSLEGNTLGKGAKSFPLYIAVNQYSKRMEDELNMKPGDKIKVITDDGEYNDGWYYGRNLRTKEEGLYPAVFTKRIAIEKPENLHKSPTQESGNSGVKYGNLNDSASNIGKVSSHQQENRYTSLKSTMSDIDKALEELRSGSVEQEVSKSPTRVPEVSTPQLQDEQTLIQEKTRNEENTTHDSLFSSTADLNLSSESLKNISKSNISTKSLEPSSESVRQLDLKMAKSWSPEEVTDYFSLVGFDQSTCNKFKEHQVSGKILLELELEHLKELEINSFGIRFQIFKEIRNIKSAIDSSSNKLDADYSTFAFENQAAQLMPAATVNRDEIQQQISSKCNKLSSESSDRKSSSVTTELQRPSSVVVNPNFKLHDPAEQILDMTEVPNLFADKDIFESPGRAPKPPSYPSPVQPPQSPSFNNRYTNNNARFPPQTTYPPKNKNPTVYSNGLIPNSSTSSDNSTGKFKFPAMNGHDSNSRKTTLTSATIPSINTVNTDESLPAISNISSNATSHHPNRNSVVYNNHKRTESGSSFVDLFNRISMLSPVKSSFDEEETKQPSKASRAVFDSARRKSSYGHSRDASLSEMKKHRRNSSILSFFSSKSQSNPTSPTKQTFTIDPAKMTSHSRSQSNSYSHARSQSYSHSRKHSLVTSPLKTSLSPINSKSNIALAHSETPTSSNNKEAVSQPSEGKHKHKHKHKSKHKHKNSSSKDGSSEEKSKKKLFSSTKESFVGSKEFKRSPSELTQKSTKSILPRSNAKKQQTSAFTEGIRSITAKESMQTADCSGWMSKKGTGAMGTWKQRFFTLHGTRLSYFTNTNDEKERGLIDITAHRVLPASDDDRLISLYAASLGKGKYCFKLVPPQPGSKKGLTFTEPRVHYFAVENKSEMKAWLSAIIKATIDIDTSVPVISSYATPTIPLSKAQTLLEEARLQTQLRDAEEEEGRDQFGWDDTQNKRNSNYPIEQDQFETSDYLESSAFEYPGGRL
B2: YLR196W (protein, UniProt P21304 1-576, looked up)
Periodic tryptophan protein 1: MISATNWVPRGFSSEFPEKYVLDDEEVERINQLAQLNLDDAKATLEEAEGESGVEDDAATGSSNKLKDQLDIDDDLKEYNLEEYDDEEIADNEGGKDVSMFPGLSNDSDVKFHEGEKGEDPYISLPNQEDSQEEKQELQVYPSDNLVLAARTEDDVSYLDIYVYDDGAGFHSSDIPVEEGDEADPDVARGLVRDPALYVHHDLMLPAFPLCVEWLDYKVGSNSEEAANYAAIGTFDPQIEIWNLDCVDKAFPDMILGEPLDNSMVSLKSKKKKKKSKTGHITTHHTDAVLSMAHNKYFRSVLASTSADHTVKLWDLNSGNAARSLASIHSNKNVSSSEWHMLNGSILLTGGYDSRVALTDVRISDESQMSKYWSAMAGEEIETVTFASENIILCGTDSGNVYSFDIRNNENRKPVWTLKAHDAGISTLCSNKFIPGMMSTGAMGEKTVKLWKFPLDDATNTKGPSMVLSRDFDVGNVLTSSFAPDIEVAGTMVIGGVNKVLKLWDVFTNRSVRKSFKSELENVQARAKEEAQKIGKSSRIARKYTSNDNPDTVITIDDQGEDEEEREGGDEHDDMA
B3: YFL010C (protein, UniProt P43582 1-211, looked up)
WW domain-containing protein …: MAQSKSNPPQVPSGWKAVFDDEYQTWYYVDLSTNSSQWEPPRGTTWPRPKGPPPGVNNEKSSRQQADQAPPPYSSQSTPQVQAGAQAQQPRYYQPQQPQYPQYPQQQRYYPQQAPMPAAAPQQAYYGTAPSTSKGSGHGGAMMGGLLGVGAGLLGGAMLEHAFDDHNYDGPDTVVVENNYYGDDAGGSDGGFDDAGGFDGGFDDGFDGSDF
B4: Abp1-1 (protein, UniProt P15891 2-592, looked up)
Actin-binding protein: ALEPIDYTTHSREIDAEYLKIVRGSDPDTTWLIISPNAKKEYEPESTGSSFHDFLQLFDETKVQYGLARVSPPGSDVEKIIIIGWCPDSAPLKTRASFAANFAAVANNLFKGYHVQVTARDEDDLDENELLMKISNAAGARYSIQTSSKQQGKASTPPVKKSFTPSKSPAPVSKKEPVKTPSPAPAAKISSRVNDNNDDDDWNEPELKERDFDQAPLKPNQSSYKPIGKIDLQKVIAEEKAKEDPRLVQKPTAAGSKIDPSSDIANLKNESKLKRDSEFNSFLGTTKPPSMTESSLKNDDDKVIKGFRNEKSPAQLWAERKAKQNSGNAETKAEAPKPEVPEDEPEGEPDVKDLKSKFEGLAASEKEEEEMENKFAPPPKKSEPTIISPKPFSKPQEPVKAEEAEQPKTDYKKIGNPLPGMHIEADNEEEPEENDDDWDDDEDEAAQPPLPSRNVASGAPVQKEEPEQEEIAPSLPSRNSIPAPKQEEAPEQAPEEEIEEEAEEAAPQLPSRSSAAPPPPPRRATPEKKPKENPWATAEYDYDAAEDNELTFVENDKIINIEFVDDDWWLGELEKDGSKGLFPSNYVSLGN
B5: Ysc84 (protein, UniProt P32793 1-468, looked up)
Protein YSC84: MGINNPIPRSLKSETKKAAKVLRSFVKPNQVFGADQVIPPYVLKRAKGLAIITVLKAGFLFSGRAGSGVIVARLKDGTWSAPSAIAMAGAGAGGMVGVELTDFVFILNSEEAVRSFSEFGTITLGGNVSVSAGPLGRSAEAAASASTGGVSAVFAYSKSKGLFAGVSVEGSAILERREANRKFYGDNCTSKMILSGRVKVPPAADPLLRILESRAFNFTRHDHDDNASGDDFYDDGQYSDNTSHYYDDIPDSFDSTDESSTRPNTRSSRRRGMSLGSRSRYDDDYDDDGYGRGRGYGDFDSEDEDYDYGRSPNRNSSRNRGPQIDRGTKPRANTRWEDDLYDRDTEYSRPNHSGRDYDNTRGNRRGYGRERGYSLGHGPTHPSNMSNVDDLSHKMSKTGLGNESTATNSATPTAVALYNFAGEQPGDLAFKKGDVITILKKSDSQNDWWTGRTNGKEGIFPANYVRVS

Columns and labels:
Assay type in all cases: cell-based, Saccharomyces cerevisiae
Abp1 PPIs = experiment: DHFR-PCA of Abp1 SH3-swapped baits (Fig. 2B-D, S2C, S2F); conditions: number of interactions of Abp1 carrying the named SH3; sheet FigS2A-B
Method in brief: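 Yeast DHFR-PCA in which Abp1 baits, carrying their SH3 replaced by CRISPR–Cas9 with one of 27 yeast SH3s or human CTTN, HCLS1 or DBNL SH3s, were mated against 575 SH3-associated DHFR F[3] preys plus 40 negative controls. Four tests were run per PPI. Diploids were selected twice (48 h, 30 °C), then grown 4 days on PCA selection media.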

Abp1 (1xFLAG) = experiment: Western blot expression level of Abp1 SH3-swapped baits (Fig. S2A-B); parameters: Flag (2 bands): unit not given here; conditions: sheet FigS2A-B; for Ratio Swap/WT Flag: Flag signal relative to Abp1 WT (Abp1-1 to Abp1-4 = 1); for Flag (2 bands): Western blot Flag signal (2 bands), Abp1 WT, SH3-deleted or SH3-swapped
Method in brief: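 Yeast expressing DHFR F[1,2]-FLAG-tagged baits grown in synthetic complete medium at 30 °C to OD600 ~1.0, lysed with glass beads in Tris pH 7.4/150 mM NaCl/1% Triton X-100. Baits immunoprecipitated on FLAG-M2 beads 120 min at 4 °C, resolved on 10% SDS-PAGE, probed with anti-FLAG HRP (ECL), signals quantified by imager.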

ABP1 = experiment: DHFR-PCA on solid medium, bait ABP1 (Fig. 1B); conditions: bait ABP1, label = prey; 2-4 replicates
From the text: (§1) Supplement 41467_2021_21873_MOESM8_ESM.xlsx, sheet "Fig1B" | column: medsize; medrep; Ratio; Score

BBC1 = experiment: DHFR-PCA on solid medium, bait BBC1 (Fig. 1B); conditions: bait BBC1, label = prey; for medrep (log2 median colony size normalized to plate background, PCA score): 2-4 replicates; for Ratio (SH3-deleted/WT medrep): only significant differences showed, PPIs completely lost have a ratio of 0.1 and the gained PPIs 2.5
From the text: as §1

Molecule | Interactions in Abp1 (Abp1 PPIs) | Ratio Swap/WT Flag (Abp1 (1xFLAG)) | Flag (2 bands) (Abp1 (1xFLAG)) | medrep (log2 median colony size normalized to plate background, PCA score) (ABP1) | medrep (log2 median colony size normalized to plate background, PCA score) (BBC1) | Ratio (SH3-deleted/WT medrep) (BBC1)
B1 | 70 | 0.615 | 59532 | – | – | –
B2 | – | – | – | 3.732 | 2.428 | 0.1
B3 | – | – | – | 2.163 | 1.4009 | 0.1
B4 | 86 | 1 | 96800 | – | – | –
B5 | 108 | 0.8764 | 203262 | – | – | –
